# Measured values reported in PMC6031081, “A Novel UDP-Glycosyltransferase of Rhodiola crenulata Converts Tyrosol to Specifically Produce Icariside D2” (BioMed Research International, 2018).
# Substrate: OCCc1ccc(O)cc1
# Experiment: purified protein
# Assay type: biochemical, Rhodiola crenulata
# Conditions: UDP-glucose co-substrate (2 mM), tyrosol varied 0.5-5 mM, 50 mM Tris-HCl, pH 8.6, 30°C, 30 min
protein,measurement,value
"RcUGT1 (Rhodiola crenulata) (protein, 6xHis tag (pQE30), E. coli M15, Ni-NTA purified; primers encode ends MDSDSRP...RRVPLS) MDSDSRPLRVFFFPFMAHGHLIPMVDIARLFSSQGVHSTIITTPLNANYISKTTSLSIKTLPFQASKVGLPDGCENVDMLPSPDLIFKFFQAANLLQKPFENLLELEKPDCLISDIFFPWSVDSAGKFNIPRLVFHGTSFFAMCAMESLKTHKPYKSVSTDSEPFVIPNLPDEIKMTKSQFTVDAWEDTEKGVGKLLADARASGLRSFGVVVNSFYELEPAYADYYKNVLNMKAWCVGPVSVCYRNDEEKIARGKKSAIDDHECLKWLEGKQPDSVVYVCFGSGASFPDEQLRDIALGLEDSGVNFIWVIRRSSESGSEDYLPEGFEDRVEGSGLVIRGWAPQVLILDHPSVGGFVTHCGWNSALEGISAGLPMVTWPLFAEQFFNQKLITDVLKIGVEVGVQKWSRNGEDRVTKEKVEKAVRAVMVGEVAEERRGRARQLGKLAKNAAAKDGSSFIDLHNLLDELKLRRVPLS",Km,972.75 ± 104.31 µM
same,Vmax,0.0172 µmol/min/mg
same,kcat,0.0155 ± 0.00044 s⁻¹
